The chains are these.
T1: GAL4 activation domain fusion (ACT) to HAB1 (UniProt Q9CAJ0 23-511, limits assumed)
T1 construct: pACT-HAB1 fusion in yeast reporter strains; also called pACT-HAB1
T1 sequence (looked up): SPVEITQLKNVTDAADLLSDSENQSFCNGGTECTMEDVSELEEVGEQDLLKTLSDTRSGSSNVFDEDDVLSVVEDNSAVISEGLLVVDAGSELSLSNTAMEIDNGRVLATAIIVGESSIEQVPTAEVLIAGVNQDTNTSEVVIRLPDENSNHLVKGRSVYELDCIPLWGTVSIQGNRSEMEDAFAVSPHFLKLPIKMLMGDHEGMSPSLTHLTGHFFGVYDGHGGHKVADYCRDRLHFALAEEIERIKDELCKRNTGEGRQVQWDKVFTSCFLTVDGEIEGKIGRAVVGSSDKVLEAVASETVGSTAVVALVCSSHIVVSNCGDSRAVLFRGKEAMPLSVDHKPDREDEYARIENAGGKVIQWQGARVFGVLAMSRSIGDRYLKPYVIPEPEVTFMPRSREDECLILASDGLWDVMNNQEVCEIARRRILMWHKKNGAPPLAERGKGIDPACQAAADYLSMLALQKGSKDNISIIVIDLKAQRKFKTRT

B1: PYR1^K59R,A89C (receptor, not shown: small tags and cut ends)
chain: MPSELTPEERSELKNSIAEFHTYQLDPGSCSSLHAQRIHAPPELVWSIVRRFDKPQTYRHFIKSCSVEQNFEMRVGCTRDVIVISGLPCNTSTERLDILDDERRVTGFSIIGGEHRLTNYKSVTTVHRFEKENRIWTVVLESYVVDMPEGNSEDDTRMFADTVVKLNLQKLATVAEAMARNSGDGSGSQVT
notes: pBD-PYR1 fusion in yeast
B2: PYR1^K59R,E141Y (receptor)
chain: B1 chain with C89A, E141Y
notes: pBD-PYR1 fusion in yeast
B3: PYR1^K59R,A89C,E141Y (receptor, not shown: small tags and cut ends)
chain: B1 chain with E141Y
notes: pBD-PYR1 fusion in yeast
B4: PYR1^K59R,V83L (receptor, not shown: small tags and cut ends)
chain: B1 chain with V83L, C89A
notes: pBD-PYR1 fusion in yeast
B5: PYR1^K59R,A160G,L117C (receptor)
chain: B1 chain with C89A, L117C, A160G
notes: pBD-PYR1 fusion in yeast
B6: PYR1^K59R,F159C (receptor, not shown: small tags and cut ends)
chain: B1 chain with C89A, F159C
notes: pBD-PYR1 fusion in yeast
B7: PYR1^K59R,F159A (receptor, not shown: small tags and cut ends)
chain: B1 chain with C89A, F159A
notes: pBD-PYR1 fusion in yeast
B8: PYR1^K59R,V164Y (receptor, not shown: small tags and cut ends)
chain: B1 chain with C89A, V164Y
notes: pBD-PYR1 fusion in yeast
B9: PYR1^K59R,A89C,V164K (receptor, not shown: small tags and cut ends)
chain: B1 chain with V164K
notes: pBD-PYR1 fusion in yeast
B10: PYR1^K59R,F159I (receptor, not shown: small tags and cut ends)
chain: B1 chain with C89A, F159I
notes: pBD-PYR1 fusion in yeast; also called K59R F1591
B11: PYR1^K59R,V164K (receptor, not shown: small tags and cut ends)
chain: B1 chain with C89A, V164K
notes: pBD-PYR1 fusion in yeast
B12: PYR1^K59R,T162K (receptor, not shown: small tags and cut ends)
chain: B1 chain with C89A, T162K
notes: pBD-PYR1 fusion in yeast
B13: PYR1^K59R,F159T (receptor, not shown: small tags and cut ends)
chain: B1 chain with C89A, F159T
notes: pBD-PYR1 fusion in yeast
B14: PYR1^K59R,A89C,A160G (receptor, not shown: small tags and cut ends)
chain: B1 chain with A160G
notes: pBD-PYR1 fusion in yeast
B15: PYR1^K59R,A160G,V164K (receptor)
chain: B1 chain with C89A, A160G, V164K
notes: pBD-PYR1 fusion in yeast
B16: PYR1^K59R,A160G (receptor, not shown: small tags and cut ends)
chain: B1 chain with C89A, A160G
notes: pBD-PYR1 fusion in yeast
B17: PYR1^K59R,V81I (receptor, not shown: small tags and cut ends)
chain: B1 chain with V81I, C89A
notes: pBD-PYR1 fusion in yeast
B18: PYR1^K59R,E141K (receptor, not shown: small tags and cut ends)
chain: B1 chain with C89A, E141K
notes: pBD-PYR1 fusion in yeast
B19: PYR1^K59R,F159L (receptor, not shown: small tags and cut ends)
chain: B1 chain with C89A, F159L
notes: pBD-PYR1 fusion in yeast
B20: PYR1^K59R,M158I (receptor, not shown: small tags and cut ends)
chain: B1 chain with C89A, M158I
notes: pBD-PYR1 fusion in yeast
B21: PYR1^K59R,L117C (receptor, not shown: small tags and cut ends)
chain: B1 chain with C89A, L117C
notes: pBD-PYR1 fusion in yeast
B22: PYR1^K59R,M158T (receptor, not shown: small tags and cut ends)
chain: B1 chain with C89A, M158T
notes: pBD-PYR1 fusion in yeast
B23: PYR1^K59R,A89C,L117C (receptor)
chain: B1 chain with L117C
notes: pBD-PYR1 fusion in yeast
B24: PYR1^K59R,L117C,V164K (receptor)
chain: B1 chain with C89A, L117C, V164K
notes: pBD-PYR1 fusion in yeast
B25: PYR1^K59R,M158C (receptor, not shown: small tags and cut ends)
chain: B1 chain with C89A, M158C
notes: pBD-PYR1 fusion in yeast
B26: PYR1^K59R,E141Y,A160G (receptor)
chain: B1 chain with C89A, E141Y, A160G
notes: pBD-PYR1 fusion in yeast
B27: PYR1^K59R,F159M (receptor, not shown: small tags and cut ends)
chain: B1 chain with C89A, F159M
notes: pBD-PYR1 fusion in yeast
B28: PYR1^K59R,T162Y (receptor, not shown: small tags and cut ends)
chain: B1 chain with C89A, T162Y
notes: pBD-PYR1 fusion in yeast
B29: PYR1^K59R,N167C (receptor, not shown: small tags and cut ends)
chain: B1 chain with C89A, N167C
notes: pBD-PYR1 fusion in yeast
B30: PYR1^K59R,L87F (receptor)
chain: B1 chain with L87F, C89A
notes: pBD-PYR1 fusion in yeast
B31: PYR1^K59R,F108L (receptor)
chain: B1 chain with C89A, F108L
notes: pBD-PYR1 fusion in yeast
B32: PYR1^K59R,S92I (receptor)
chain: B1 chain with C89A, S92I
notes: pBD-PYR1 fusion in yeast
B33: PYR1^K59R,A89I,S92I (receptor)
chain: B1 chain with C89I, S92I
notes: pBD-PYR1 fusion in yeast
B34: PYR1^K59R,A89I,S92W (receptor)
chain: B1 chain with C89I, S92W
notes: pBD-PYR1 fusion in yeast
B35: PYR1^K59R,A89W (receptor)
chain: B1 chain with C89W
notes: pBD-PYR1 fusion in yeast
B36: PYR1^K59R,A89I (receptor)
chain: B1 chain with C89I
notes: pBD-PYR1 fusion in yeast
B37: PYR1^K59R,S92W (receptor)
chain: B1 chain with C89A, S92W
notes: pBD-PYR1 fusion in yeast

Numbering of substitutions follows the chain as printed. Numbers in names are those of the source.

The first experiment addresses T1, GAL4 activation domain fusion (ACT) to …. In words: yeast two-hybrid, X-gal; lowest benzothiadiazole concentration giving signal.
B1: the Threshold was found to be 100 µM.
Same read-out and setting: to B2 belongs 100 µM.
The same measure, in the same setting: to B3 belongs 0.2 µM.
For the molecule B4, the Threshold was 100 µM.
For B5, the Threshold amounted to 25 µM.
B6 showed a Threshold of 100 µM.
On the same count and under the same terms, the figure for B7 is 100 µM.
Same read-out and setting: to B8 belongs 100 µM; to B9, 0.2 µM.
B10: the Threshold came to 100 µM.
With B11, the Threshold was 100 µM.
The molecule B12 displayed a Threshold of 100 µM.
Still for that read-out and setting: to B13 belongs 100 µM.
The same measure, in the same setting: the figure for B14 is 5 µM; for B15 it is 5 µM; for B16 it is 100 µM.
The molecule B17 registered a Threshold of 100 µM.
Molecule B18 showed a Threshold of 100 µM.
Turning to B19, the Threshold is 100 µM.
Turning to B20, the Threshold was found to be 100 µM.
On the same count and under the same terms, the figure for B21 is 100 µM; for B22 it is 100 µM.
Consider B23, for which the Threshold amounted to 25 µM.
B24 came in with a Threshold of 100 µM.
Still for that read-out and setting: the figure for B25 is 100 µM.
B26 came in with a Threshold of 5 µM.
Same read-out and setting: to B27 belongs 100 µM; to B28, 100 µM.

The target is the same in another experiment. Nature of the experiment: yeast two-hybrid, X-gal; lowest dichlobenil concentration giving signal.
B2 registered a Threshold of 100 µM.
For B4, the Threshold came out at 100 µM.
On the same count and under the same terms, to B29 belongs 100 µM; to B8, 100 µM.
As for B10, the Threshold turned out to be 100 µM.
On the same count and under the same terms, the figure for B11 is 100 µM.
The same measure, in the same setting: the figure for B12 is 100 µM; for B19 it is 100 µM; for B20 it is 100 µM.
The same measure, in the same setting: the figure for B22 is 100 µM.
Molecule B25 yielded a Threshold of 100 µM.
B28: the Threshold stood at 100 µM.

For another experiment the target is unchanged. Nature of the experiment: yeast two-hybrid, X-gal; lowest fludioxonil concentration giving signal.
B2 displayed a Threshold of 100 µM.
Still for that read-out and setting: the figure for B4 is 100 µM; for B30 it is 100 µM; for B29 it is 100 µM.
Still for that read-out and setting: the figure for B7 is 100 µM; for B11 it is 100 µM; for B13 it is 100 µM.
On the same count and under the same terms, to B17 belongs 100 µM; to B31, 100 µM; to B20, 100 µM.
B22: the Threshold stood at 100 µM.
The same measure, in the same setting: the figure for B25 is 100 µM.

For another experiment the target is unchanged. In words: yeast two-hybrid, X-gal; lowest benoxacor concentration giving signal. As for the experimental part:
The set of 475 mutant plasmids were individually transformed into the Y190 yeast two hybrid reporter strain co-transformed with pACT-HAB1, as previously described (Park et al., 2009). The yeast strains generated were arrayed into 96-well plates yielding what we refer to as the “pocket library”. The pocket library strains were spotted onto agar plates containing selective synthetic dextrose (minus Leu & Trp) medium that was supplemented with a single test compound at 100 μM. The pocket library strains were separately tested for responsiveness to the following compounds: dichlobenil, benzothiadiazole, mandipropamid, fludioxonil, and benoxacor. After incubating test plates at 30° C. for two days, colonies were chloroform lysed and stained to reveal β-galactosidase expression levels, using previously described methods (Park et al., 2009). Mutants displaying responsiveness to the test compound, if present, were identified by virtue of X-gal staining and then subjected to subsequent optimization efforts. Using this approach we identified mutations that conferred detectable sensitivity to the compounds tested (see entries labeled “Pocket Library Screens” in Table 1).
For the molecule B32, the Threshold turned out to be 50 µM.
Still for that read-out and setting: the figure for B33 is 50 µM; for B34 it is 50 µM.
The same measure, in the same setting: to B30 belongs 100 µM; to B35, 100 µM.
The same measure, in the same setting: the figure for B22 is 100 µM; for B36 it is 100 µM.
B25 gave a Threshold of 100 µM.
Molecule B37 had a Threshold of 50 µM.

The target is the same in a further experiment. Nature of the experiment: yeast two-hybrid, X-gal; lowest mandipropamid concentration giving signal.
Consider B6, for which the Threshold came to 100 µM.
On the same count and under the same terms, to B7 belongs 100 µM; to B10, 100 µM; to B13, 100 µM.
The same measure, in the same setting: to B35 belongs 100 µM.
Consider B31, for which the Threshold amounted to 100 µM.
Same read-out and setting: the figure for B19 is 100 µM; for B27 it is 100 µM.
